According to paper PMC10495429, “Discovery of L-threonine transaldolases for enhanced biosynthesis of beta-hydroxylated amino acids” (Communications Biology, 2023):

Experiments:
PbTTA = test system: T1, PbTTA; test: TTA-ADH coupled assay (NADH depletion at […] nm), non-linear regression; type: biochemical; conditions: 1 mM phenylacetaldehyde (non-saturating), PLP, MgCl2, phosphate pH 7.5, 30 °C; read-out: apparent KM
T1 construct: N-terminal hexahistidine-SUMO tag with TEV site kept (screen done with SUMO fusion intact), E. coli BL21

C[C@@H](O)[C@H](N)C(=O)O = test: purified protein; conditions: 1 mM phenylacetaldehyde (non-saturating), PLP, MgCl2, phosphate pH 7.5, 30 °C
purified protein = substrate: C[C@@H](O)[C@H](N)C(=O)O; test: purified protein; type: biochemical, Pseudomonas fluorescens; conditions: 1 mM phenylacetaldehyde (non-saturating), PLP, MgCl2, phosphate pH 7.5, 30 °C

Question: How did the Km (PbTTA) turn out when `C[C@@H](O)[C@H](N)C(=O)O` [L-Thr] was run?
Answer: Its Km is 10.9 mM.

Question: s-KaTTA (Kitasatospora aureofaciens) was tested. Which Km (C[C@@H](O)[C@H](N)C(=O)O) did it give?
Answer: Its Km is 19.1 mM.

Question: What does the source list for PiTTA (Pseudomonas sp. Irchel s3a18)?
Answer: Km (C[C@@H](O)[C@H](N)C(=O)O): 35.8 (21.0, 41.5) mM; kcat (C[C@@H](O)[C@H](N)C(=O)O): 276.4 (260, 294.7) min-1

B1: ObiH (Pseudomonas fluorescens) (protein)
chain: MSNVKQQTAQIVDWLSSTLGKDHQYREDSLSLTANENYPSALVRLTSGSTAGAFYHCSFPFEVPAGEWHFPEPGHMNAIADQVRDLGKTLIGAQAFDWRPNGGSTAEQALMLAACKPGEGFVHFAHRDGGHFALESLAQKMGIEIFHLPVNPTSLLIDVAKLDEMVRRNPHIRIVILDQSFKLRWQPLAEIRSVLPDSCTLTYDMSHDGGLIMGGVFDSPLSCGADIVHGNTHKTIPGPQKGYIGFKSAQHPLLVDTSLWVCPHLQSNCHAEQLPPMWVAFKEMELFGRDYAAQIVSNAKTLARHLHELGLDVTGESFGFTQTHQVHFAVGDLQKALDLCVNSLHAGGIRSTNIEIPGKPGVHGIRLGVQAMTRRGMKEKDFEVVARFIADLYFKKTEPAKVAQQIKEFLQAFPLAPLAYSFDNYLDEELLAAVYQGAQR
notes: N-terminal hexahistidine tag, expressed in E. coli BL21, codon-optimised gene; tag kept
Question: For B1, which Km (purified protein) is on record?
Answer: Its Km is 29.5 mM.
